Patent US7183387 (Genentech, dated 2007)
Where a chain is given by its changes, count along the chain named. Names and notes keep the numbering of the source.

T1: human FcγRIIA-H131 α subunit extracellular domain-His6-GST fusion protein (human, UniProt P12318 34-217)
T1 construct: also called FcγRIIA-His131; not shown: glutathione S-transferase (GST)
T1 sequence: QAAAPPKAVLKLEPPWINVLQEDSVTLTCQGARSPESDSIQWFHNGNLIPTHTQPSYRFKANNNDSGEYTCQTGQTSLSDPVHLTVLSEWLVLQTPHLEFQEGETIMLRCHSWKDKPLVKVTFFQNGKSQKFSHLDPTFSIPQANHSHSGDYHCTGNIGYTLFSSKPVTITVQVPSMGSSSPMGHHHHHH

T2: human FcγRIIA-R131 α subunit extracellular domain-His6-GST fusion (human, UniProt P12318 34-217)
T2 construct: ECD-6His-GST fusion made in 293 cells; also called FcγRIIA-Arg131; not shown: glutathione S transferase (GST)
T2 sequence: T1 sequence with H134R

T3: human FcγRIIA-H131 α subunit extracellular domain-His6-GST fusion (human, UniProt P12318 34-217)
T3 construct: ECD-6His-GST fusion made in 293 cells; also called FcγRIIA-His131; not shown: glutathione S transferase (GST)
T3 sequence: T1 sequence

T4: human FcγRIIB α subunit extracellular domain-6His-GST fusion (human, UniProt P31994 43-217)
T4 construct: not shown: glutathione S-transferase (GST)
T4 sequence: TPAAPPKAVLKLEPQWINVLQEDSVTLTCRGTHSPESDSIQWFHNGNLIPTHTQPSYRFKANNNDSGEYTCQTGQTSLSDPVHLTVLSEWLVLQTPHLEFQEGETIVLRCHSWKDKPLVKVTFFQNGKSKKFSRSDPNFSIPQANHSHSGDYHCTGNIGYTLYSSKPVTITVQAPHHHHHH

T5: human FcγRIIA-R131 α subunit extracellular domain-6His-GST fusion (human, UniProt P12318 34-217)
T5 construct: also called FcγRIIA-Arg131; not shown: glutathione S-transferase (GST)
T5 sequence: T1 sequence with H134R

B1: anti-IgE E27 IgG1 variant Asp270Ala (antibody)
heavy: not shown
light: DIQLTQSPSSLSASVGDRVTITCRASKPVDGEGDSYLNWYQQKPGKAPKLLIYAASYLESGVPSRFSGSGSGTDFTLTISSLQPEDFATYYCQQSHEDPYTFGQGTKVEIKRTVAAPSVFIFPPSDEQLKSGTASVVCLLNNFYPREAKVQWKVDNALQSGNSQESVTEQDSKDSTYSLSSTLTLSKADYEKHKVYACEVTHQGLSSPVTKSFNRGEC
notes: also called D270(283)A; D283A
B2: anti-IgE E27 IgG1 variant H268(281)A (antibody)
heavy: not shown
light: B1 light
notes: Fc variant of E27; also called IG2 16; G16
B3: anti-IgE E27 IgG1 variant K317(336)A (antibody)
heavy: not shown
light: B1 light
notes: Fc variant of E27; also called IG2 46; Lys317Ala
B4: anti-IgE E27 IgG1 variant K320(339)A (antibody)
heavy: not shown
light: B1 light
notes: Fc variant of E27; also called IG2 48; Lys320Ala
B5: anti-IgE E27 IgG1 variant N315(334)A (antibody)
heavy: not shown
light: B1 light
notes: Fc variant of E27; also called IG2 45; Asn315Ala
B6: anti-IgE E27 IgG1 variant S267(280)A/H268(281)A (antibody)
heavy: not shown
light: B1 light
notes: Fc variant of E27; also called IG2 96; Ser267Ala/His268Ala
B7: anti-IgE E27 IgG1 variant S267(280)G (antibody)
heavy: not shown
light: B1 light
notes: Fc variant of E27; also called IG2 189; Ser267Gly
B8: anti-IgE E27 IgG1 variant T307(326)A (antibody)
heavy: not shown
light: B1 light
notes: Fc variant of E27; also called IG2 41; Thr307Ala
B9: anti-IgE E27 IgG1 variant V305(324)A (antibody)
heavy: not shown
light: B1 light
notes: Fc variant of E27; also called IG2 40; Val305Ala
B10: anti-IgE E27 IgG1 variant S267(280)A (antibody)
heavy: not shown
light: B1 light
notes: Fc variant of E27; also called IG2 15; G15
B11: E27 IgG1 variant S267(280)A/E258(271)A (antibody)
heavy: not shown
light: B1 light
B12: E27 IgG1 variant S267(280)A/E258(271)A/D280(295)A/R255(268)A (antibody)
heavy: EVQLVESGGGLVQPGGSLRLSCAVSGYSITSGYSWNWIRQAPGKGLEWVASIKYSGETKYNPSVKGRITISRDDSKNTFYLQMNSLRAEDTAVYYCARGSHYFGHWHFAVWGQGTLVTVSSASTKGPSVFPLAPSSKSTSGGTAALGCLVKDYFPEPVTVSWNSGALTSGVHTFPAVLQSSGLYSLSSVVTVPSSSLGTQTYICNVNHKPSNTKVDKKVEPKSCDKTHTCPPCPAPELLGGPSVFLFPPKPKDTLMISATPAVTCVVVDVAHEDPEVKFNWYVAGVEVHNAKTKPREEQYNSTYRVVSVLTVLHQDWLNGKEYKCKVSNKALPAPIEKTISKAKGQPREPQVYTLPPSREEMTKNQVSLTCLVKGFYPSDIAVEWESNGQPENNYKTTPPVLDSDGSFFLYSKLTVDKSRWQQGNVFSCSVMHEALHNHYTQKSLSLSPGK
light: B1 light
notes: also called IG2 264
B13: E27 IgG1 variant S267(280)A/E272(285)A (antibody)
heavy: not shown
light: B1 light
notes: also called IG2 250
B14: E27 IgG1 variant S267(280)A/E293(310)A (antibody)
heavy: not shown
light: B1 light
notes: also called IG2 251
B15: E27 IgG1 variant S267(280)A/H268(281)A (antibody)
heavy: not shown
light: B1 light
notes: also called IG2 96
B16: E27 IgG1 variant S267(280)A/R255(268)A (antibody)
heavy: not shown
light: B1 light
notes: also called IG2 247
B17: E27 IgG1 variant S298(317)A/E333(352)A (antibody)
heavy: not shown
light: B1 light
B18: E27 IgG1 variant S298(317)A/E333(352)A/K334(353)A (antibody)
heavy: B12 heavy with A259R, A262E, A271S, A284D, S302A, E337A, K338A
light: B1 light
notes: also called IG2 110
B19: E27 IgG1 variant S298(317)A/K334(353)A (antibody)
heavy: not shown
light: B1 light
B20: E27 IgG1 variant T256(269)A/D280(295)A/R292(309)A/S298(317)A/T307(326)A (antibody)
heavy: B12 heavy with A259R, T260A, A262E, A271S, R296A, S302A, T311A
light: B1 light
B21: E27 IgG1 variant T256(269)A/D280(295)A/S298(317)A/T307(326)A (antibody)
heavy: B12 heavy with A259R, T260A, A262E, A271S, S302A, T311A
light: B1 light
notes: also called IG2 1051
B22: E27 IgG1 variant T256(269)A/S298(317)A (antibody)
heavy: not shown
light: B1 light
notes: also called IG2 1059

biological target: T1, human FcγRIIA-H131 α subunit …; assay: ELISA, IgG:IgE hexamer on coated FcγRIIA-H131-GST

Binder | ratio of binding of the variant to that of native IgG1
B1 | 0.45 ratio (variant/native IgG1)

biological target: T1, human FcγRIIA-H131 α subunit …; assay: ELISA; binding ratio on FcγRIIA-H131 divided by that on FcγRIIA-R131

Binder | H131/R131
B1 | 16.6 ratio (H131 value/R131 value)

biological target: T2, human FcγRIIA-R131 α subunit …; assay: ELISA, IgG complex, receptor coated

Binder | ratio of binding, variant/native IgG1 (mean) [ratio]
B2 | 1.22
B3 | 1.13
B4 | 1.12
B5 | 1.15
B6 | 1.54
B7 | 1.21
B8 | 1.19
B9 | 1.12
B10 | 1.64

biological target: T3, human FcγRIIA-H131 α subunit …; assay: ELISA, IgG complex, receptor coated

Binder | ratio of binding, variant/native IgG1 (mean) [ratio]
B2 | 1.09
B3 | 1.04
B4 | 1.16
B5 | 1.11
B6 | 1.07
B7 | 0.59
B8 | 1.37
B9 | 1.04
B10 | 1.05

biological target: T6, human FcγRIIIA-F158 α subunit extracellular domain-His6-GST fusion (human, UniProt P08637 17-208); assay: ELISA, IgG complex, receptor coated
T6 construct: ECD-6His-GST fusion made in 293 cells; also called FcγRIIIA-Phe158; not shown: glutathione S transferase (GST)
T6 sequence (P08637 other isoform, or with tags, fused parts or gaps, form in doubt): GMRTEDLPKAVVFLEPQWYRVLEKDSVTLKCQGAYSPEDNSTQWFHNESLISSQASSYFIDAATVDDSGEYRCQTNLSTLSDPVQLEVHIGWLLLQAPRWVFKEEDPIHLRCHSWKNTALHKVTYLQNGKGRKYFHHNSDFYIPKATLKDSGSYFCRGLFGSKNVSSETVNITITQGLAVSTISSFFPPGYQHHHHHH

Binder | ratio of binding, variant/native IgG1 (mean) [ratio]
B2 | 0.52
B3 | 1.1
B4 | 0.87
B5 | 1.07
B6 | 0.84
B7 | 0.09
B8 | 1.12
B9 | 0.84
B10 | 1.14

biological target: T7, human FcγRIIIA-F158 α subunit extracellular domain-6His-GST fusion (human, UniProt P08637 17-208); assay: ELISA, IgG:IgE hexamers on receptor-GST
T7 construct: also called FcγRIIIA-Phe158; not shown: glutathione S-transferase (GST)
T7 sequence (P08637 other isoform, or with tags, fused parts or gaps, form in doubt): as above

Binder | ratio to native IgG1
B11 | 1.04
B12 | 0.89
B13 | 0.95
B14 | 0.92
B15 | 0.96
B16 | 0.88
B17 | 1.53
B18 | 1.51
B19 | 1.62
B20 | 0.9
B21 | 1.21
B22 | 1.41

biological target: T4, human FcγRIIB α subunit extracellular …; assay: ELISA, IgG:IgE hexamers on receptor-GST

Binder | ratio to native IgG1
B11 | 2.01
B12 | 2.03
B13 | 1.82
B14 | 1.85
B15 | 1.56
B16 | 1.72
B17 | 0.16
B18 | 0.15
B19 | 0.19
B20 | 0.08
B21 | 0.3
B22 | 0.22

biological target: T5, human FcγRIIA-R131 α subunit …; assay: ELISA, IgG:IgE hexamers on receptor-GST

Binder | ratio to native IgG1
B11 | 1.62
B12 | 1.48
B13 | 1.51
B14 | 1.67
B15 | 1.41
B16 | 1.6
B17 | 0.34
B18 | 0.34
B19 | 0.41
B20 | 0.11
B21 | 0.47
B22 | 0.44
